Source: publication PMC11750108, “FlbB forms a distinctive ring essential for periplasmic flagellar assembly and motility in Borrelia burgdorferi” (PLOS Pathogens, 2025)

Target: the molecule itself
Assay: SEC-SAXS; purified FLAG-FlbB-His6 at 4 mg/ml, 10 mM HEPES, 140 mM NaCl, pH 7.3; Shodex 802.5 SEC column, SIBYLS beamline 12.3.1; molecular weight from the volume of correlation

B1: FLAG-FlbB-His6 (deleted the first 42 aa from the FlbB) (domain or fragment)
chain: FPEFVRTKLLGETSLVFDHNSNIILDEARLVKEREAIDIKNQQIEKLKEDLKLKEDSLNKLEFELKQKQKDLDLKQKVIDDIINKYNDEEANILQTAVYLMNMPPEDAVKRLEDLNPELAISYMRKIEELSKKEGRLSIVPYWLSLMDSKKAAILIRKMSVSSLE
notes: FlbB, periplasmic flagellar collar protein of Borrelia burgdorferi (205 amino acids); the first 42 aa (with the N-terminal transmembrane helix) deleted; The deletion of the first 42 aa is stated only for the SEC-SAXS sample; Monomer estimated at 20.85 kDa; also called FlbB-6His; source: E. coli codon plus cells; in lysate of mixed cells (pull-downs); purified recombinant (SEC-SAXS, far-western); …
- stoichiometry N: 2
